These results are taken from publication PMC2768864 (The Journal of Experimental Medicine, 2009).

B1: plasma kallikrein (enzyme)
heavy: GCLTQLYENAFFRGGDVASMYTPNAQYCQMRCTFHPRCLLFSFLPASSINDMEKRFGCFLKDSVTGTLPKVHRTGAVSGHSLKQCGHQISACHRDIYKGVDMRGVNFNVSKVSSVEECQKRCTSNIRCQFFSYATQTFHKAEYRNNCLLKYSPGGTPTAIKVLSNVESGFSLKPCALSEIGCHMNIFQHLAFSDVDVARVLTPDAFVCRTICTYHPNCLFFTFYTNVWKIESQRNVCLLKTSESGTPSSSTPQENTISGYSLLTCKRTLPEPCHSKIYPGVDFGGEELNVTFVKGVNVCQETCTKMIRCQFFTYSLLPEDCKEEKCKCFLRLSMDGSPTRIAYGTQGSSGYSLRLCNTGDNSVCTTKTSTR
light: not shown
B2: activated factor XII (FXIIa) (enzyme, human)
heavy: IPPWEAPKEHKYKAEEHTVVLTVTGEPCHFPFQYHRQLYHKCTHKGRPGPQPWCATTPNFDQDQRWGYCLEPKKVKDHCSKHSPCQKGGTCVNMPSGPHCLCPQHLTGNHCQKEKCFEPQLLRFFHKNEIWYRTEQAAVARCQCKGPDAHCQRLASQACRTNPCLHGGRCLEVEGHRLCHCPVGYTGAFCDVDTKASCYDGRGLSYRGLARTTLSGAPCQPWASEATYRNVTAEQARNWGLGGHAFCRNPDNDIRPWCFVLNRDRLSWEYCDLAQCQTPTQAAPPTPVSPRLHVPLMPAQPAPPKPQPTTRTPPQSQTPGALPAKREQPPSLTRNGPLSCGQRLRKSLSSMTR
light: VVGGLVALRGAHPYIAALYWGHSFCAGSLIAPCWVLTAAHCLQDRPAPEDLTVVLGQERRNHSCEPCQTLAVRSYRLHEAFSPVSYQHDLALLRLQEDADGSCALLSPYVQPVCLPSGAARPSETTLCQVAGWGHQFEGAEEYASFLQEAQVPFLSLERCSAPDVHGSSILPGMLCAGFLEGGTDACQGDSGGPLVCEDQAAERRLTLQGIISWGSGCGDRNKPGVYTDVAYYLAWIREHTVS
B3: Ixodes ricinus contact phase inhibitor (Ir-CPI) (natural protein)
chain: ANHKGRGRPAKCKLPPDDGPCRARIPSYYFDRKTKTCKEFMYGGCEGNENNFENITTCQEECRAKKV

What all share (assay): SPR
For experiment [1], the target named is B3.
The target in experiment [2] is activated factor XI (FXIa) (human, UniProt P03951 19-387; P03951 388-625).
The target of the experiment “plasma kallikrein” is B1.
In experiment [3] the target is B2.

Chain of plasma kallikrein (P03952 391-638): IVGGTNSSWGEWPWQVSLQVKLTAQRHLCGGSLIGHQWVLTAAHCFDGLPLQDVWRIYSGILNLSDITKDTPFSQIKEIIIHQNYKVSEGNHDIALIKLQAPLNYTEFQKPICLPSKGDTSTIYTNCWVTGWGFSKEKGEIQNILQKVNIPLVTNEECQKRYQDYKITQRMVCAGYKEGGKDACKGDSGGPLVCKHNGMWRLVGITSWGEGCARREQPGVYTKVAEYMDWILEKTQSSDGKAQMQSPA
Chain of activated factor XI (FXIa) (P03951 19-387, chain 1 of 2): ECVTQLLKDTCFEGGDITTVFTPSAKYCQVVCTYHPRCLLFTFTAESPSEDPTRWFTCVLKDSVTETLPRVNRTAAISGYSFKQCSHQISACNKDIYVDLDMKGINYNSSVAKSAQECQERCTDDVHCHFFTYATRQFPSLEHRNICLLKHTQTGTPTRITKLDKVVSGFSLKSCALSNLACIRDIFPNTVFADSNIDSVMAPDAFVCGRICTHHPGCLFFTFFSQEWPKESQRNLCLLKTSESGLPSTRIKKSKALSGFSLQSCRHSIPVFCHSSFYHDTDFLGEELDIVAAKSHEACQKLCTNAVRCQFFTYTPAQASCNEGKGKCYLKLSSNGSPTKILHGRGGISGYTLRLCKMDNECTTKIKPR
Chain of activated factor XI (FXIa) (P03951 388-625, chain 2 of 2): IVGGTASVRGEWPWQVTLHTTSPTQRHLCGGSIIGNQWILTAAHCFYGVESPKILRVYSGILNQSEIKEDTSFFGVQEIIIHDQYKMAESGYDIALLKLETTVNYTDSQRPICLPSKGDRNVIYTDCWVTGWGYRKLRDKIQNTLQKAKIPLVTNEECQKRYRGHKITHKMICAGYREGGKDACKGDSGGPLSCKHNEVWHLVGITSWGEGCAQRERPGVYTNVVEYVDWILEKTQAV

For the molecule B1, in experiment [1], the “ka1 (two-state model, formation of AB)” value is 34900 M⁻¹ s⁻¹; the “ka2 (two-state model, forward conformation change)” value amounted to 0.00834 s⁻¹; the “kd1 (two-state model, dissociation of AB)” value was 0.0532 s⁻¹; the “kd2 (two-state model, backward conformation change)” value stood at 0.00142 s⁻¹.

On to B2, for which, in experiment [1], the “ka1 (two-state model, formation of AB)” value is 219000 M⁻¹ s⁻¹; the “ka2 (two-state model, forward conformation change)” value came out at 0.655 s⁻¹; the “kd1 (two-state model, dissociation of AB)” value was determined as 0.0946 s⁻¹; the “kd2 (two-state model, backward conformation change)” value stood at 0.105 s⁻¹.

Regarding B3, the Ka in experiment [2] was determined as 3.83e+08 M⁻¹; with plasma kallikrein, 4.51e+06 M⁻¹; in experiment [3], 1.68e+08 M⁻¹.
